Residue numbers refer to the chain shown, from its start.
T1: NS5A-TP2 (Homo sapiens, UniProt Q7Z4H3)
T1 construct: expressed in transfected cells; host or cells: yeast
T1 sequence (Q7Z4H3 1-204): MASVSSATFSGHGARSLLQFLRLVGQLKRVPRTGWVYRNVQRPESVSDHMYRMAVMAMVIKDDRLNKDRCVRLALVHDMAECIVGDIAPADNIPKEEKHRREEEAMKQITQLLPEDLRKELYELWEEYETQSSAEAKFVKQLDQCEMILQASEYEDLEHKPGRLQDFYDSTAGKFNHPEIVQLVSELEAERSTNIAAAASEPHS

B1: C2: R5G42 mutant having a one amino acid change (SEQ ID 23) (protein)
chain: MVKQIESKTAFQEALDAAGDKLVVVDFSATWCGPSAVTFAVCALGPCKMIKLFFHSLSEKYSNVIFLEVDVDDCQDVASECEVKCMPTFQFFKKGQKVGEFSGANKEKLEATINELV
modifications: Aptamer R5G42 mutant C2
B2: C7: R5G42 mutant having a one amino acid change (SEQ ID 27) (protein)
chain: B1 chain with L22P, L52P
modifications: Aptamer R5G42 mutant C7
B3: C8: R5G42 mutant having a one amino acid change (SEQ ID 28) (protein)
chain: B1 chain with F39I, L52P
modifications: Aptamer R5G42 mutant C8
B4: receptor activator of nuclear factor (NF)-κB ligand (protein, UniProt O14788 140-317, looked up)
Tumor necrosis factor ligand …: IRAEKAMVDGSWLDLAKRSKLEAQPFAHLTINATDIPSGSHKVSLSSWYHDRGWAKISNMTFSNGKLIVNQDGFYYLYANICFRHHETSGDLATEYLQLMVYVTKTSIKIPSSHTLMKGGSTKYWSGNSEFHFYSINVGGFFKLRSGEEISIEVSNPSLLDPDQDATYFGAFKVRDID
notes: TNF family cytokine, normal osteoclast differentiation factor

Key:
[1] = system: Hela cells; assay: Colony formation assay (cell proliferation assay, crystal violet); type: cell-based; conditions: continuous expression 2 weeks, compared to AptaLib and human thioredoxin
Description: (§1) (B) Colony formation assays. Hela or MCF-7 cells were transfected with plasmids directing the stable expression of the Cdk inhibitor p21, a library of peptide aptamers from pBK1 (AptaLib), Human thioredoxin (HTRX), and peptide aptamers R7G44, R5G42, R5G52. The cells were cultured for two weeks and the colonies were stained with crystal violet.
(§2) The inventors wished to establish the antiproliferative activity of these peptide aptamers using alternative cellular models and a non-retroviral vector to express individually each aptamer. They cloned the aptamer coding genes into a vector bearing a hygromycin selection marker. They also subcloned the pBK1 library into this vector, to create “AptaLib”. They continuously expressed the aptamers, the empty thioredoxin scaffold or AptaLib in Hela and MCF-7 cells for 2 weeks and they stained the cells that grew. […] These aptamers may originate from the remaining background of slowly proliferating cells during the seventh screening iteration, independently of the expressed aptamers. […] This could be due to the fact that the CMTMR assay is more sensitive in detecting modest antiproliferative effects than the colony formation assay or that some peptide aptamers somehow enhance the CMTMR labeling of their host cells.
(§3) To stably express peptide aptamers in mammalian cells, the episomal eukaryotic expression vector pCEP4 that bears a CMV promoter and a hygromycin selection marker (InVitrogen) was used. Aptamer coding sequences were PCR amplified using the oligonucleotides
(§4) that contained a stop codon. The PCR products were digested with NheI and NotI and ligated into NheI/NotI-cut pCEP4 to create pEA-aptamer plasmids. 3×10^5 cells/well were plated in 6-well plates and transfected 24 h after using Jet PEI (Qbiogen), 3.7 μg pEA-aptamer plasmids and 0.3 μg pEGFP-C1 (Clontech) to monitor transfection. Hygromycin (InVitrogen) was added at 200 μg/ml two days later and the cells were cultured for 2 weeks, renewing the medium twice a week. The cells were then rinsed in PBS and were fixed and stained by incubating 30 min in crystal violet (0.05% crystal violet, 20% ethanol, 0.37% formaldehyde). Excess crystal violet was removed by washing with water. In Vitro Phosphatase Assay

[2] = system: MCF-7 cells; assay: as above; type: cell-based; conditions: MCF-7, continuous expression 2 weeks, compared to AptaLib and human thioredoxin
Description: as §1, §2, §3, §4

[3] = system: CNA; assay: Yeast two-hybrid assay; type: binding, human; conditions: mating assay, LexA-aptamer fusions
Description: (A) Yeast two-hybrid mating assay. TB50α yeast were co-transformed with pSH18-34T (bearing a lacZ reporter gene) and plasmids directing the expression of LexA alone or in fusion with peptide aptamers R5G42, R7G44 or R5G52. MB210a yeast were transformed with the selected cDNA library plasmids directing the expression of CNAβ, CNAγ, and NS5ATP2 truncated proteins. To obtain negative controls, MB210a yeast were also transformed with the empty prey plasmid (pJG4-5) and with pJG4-5 directing the expression of Ras and FKBP12 prey proteins. To obtain a positive control, MB210a yeast were transformed with pJG4-5 directing the expression of RG22 peptide aptamer prey fusion protein that interacts with LexA in the context of most LexA fusion proteins.
The inventors set out to map the R5G42 binding site on CNA. The CNA interacting clones selected in the yeast two-hybrid experiments corresponded to the carboxy-terminal regions of the beta and gamma isoforms, encompassing the calmodulin-binding domain and the auto-inhibitory domain (see FIG. 3B). […] The LexA-R5G52 bait protein may thus not be properly expressed and/or folded in this yeast two-hybrid setting.
(§5) The inventors explored the ability of R5G42 mutants having a one amino acid change as compared to R5G42, to bind to CNA beta and gamma C-Terminal fragments (FIG. 3b) and to NS5A-TP2. To this end, they proceeded to yeast-two hybrid assays as in example 3. CNA beta and gamma C-Terminal fragments (FIG. 3b) and NS5A-TP2 were cloned in three different plasmids (pSH18-34, pJK103 and pRB18-40), which differed from each other in the level of sensitivity of their promoter to the bait/prey complex formation, pSH18-34 having the highest sensitivity and pRB18-40 having the lowest.
The 5′ end of RH6 (upper case) matches part of the HA epitope tag and the 5′ ends of RH4, RH3 and RH7 (upper case) match the 5′ extremity of the ADH terminator. The PCR reactions was performed using pCMV-SPORT6-CnAβ as a template. CnAβCter Δ1, Δ2, CaM were constructed by combining oligonucleotides RH6/RH4, RH6/RH3, RH6/RH7, respectively. […]

[4] = molecular target: T2, CNA beta C-terminal fragment (Homo sapiens, UniProt P16298); assay: Yeast two-hybrid assays of R5G42 mutants; type: binding; conditions: plasmids pSH18-34, pJK103, pRB18-40
T2 construct: expressed in transfected cells; host or cells: yeast (MB210a transformed with library plasmid, mated with bait strain)
Description: (§6) The capacity of R5G42 mutants having a one amino acid change as compared to R5G42 to bind CNA beta and gamma C-Terminal fragments (FIG. 3b) and NS5A-TP2 was tested in yeast two-hybrid assays. CNA beta and gamma C-Terminal fragments and NS5A-TP2 were cloned in three different vectors (pSH18-34, pJK103 and pRB18-40). These three plasmids differ from each other in the level of sensitivity of their promoter, pSH18-34 having the highest sensitivity and pRB18-40 having the lowest.
as §5

[5] = system: CNA gamma C-terminal fragment; assay: Yeast two-hybrid assays of R5G42 mutants; type: binding, human; conditions: plasmids pSH18-34, pJK103, pRB18-40
Description: as §6, §5

[6] = molecular target: T1, NS5A-TP2; assay: Further yeast two-hybrid binding assays (higher sensitivity)
Description: FIG. 14. Specificity of aptamers according to the invention for CNA and NS5A-TP2 Interaction matrix between peptide aptamers R5G42, C2, C7, C8, N9, R5G44 and R5G52 with CNA constructs CNA1-CNA8 (A) CNA9-11 (B) and NS5A-TP2 (C). An interaction phenotype between CNA3/CNA 11, which both contain the Calmodulin binding domain (CaM) and the auto-inhibitory domain (Al) but not the CNB binding domain (CNB) and the aptamers R5G42, C2, C7, C8 and N9 is observed in a two-hybrid assay. R5G44 and R5G52 aptamers recognize neither the CNA fragments, nor NS5A-TP2. Only aptamers R5G42 and N9 recognize NS5A-TP2.
The inventors proceeded to further yeast two-hybrid binding assays between peptide aptamers R5G42 (SEQ ID 22), C2 (SEQ ID 23), C7 (SEQ ID 27), C8 (SEQ ID 28), N9 (SEQ ID 33), R5G44 and R5G52 with CNA constructs CNA1-CNA8 (FIG. 14A), CNA9-CNA11 (FIG. 14B) and NS5A-TP2 (SEQ ID 15) (FIG. 14C). The sensitivity of this yeast two-hybrid assay was higher than in the experiment reported above.

[7] = system: Raw1 cells (osteoclasts precursors); assay: Raw cell differentiation assay (osteoclast differentiation); type: cell-based
Description: Trx, CNA* and Peptide aptamers R5G42, C2, C7, C8 and N9 were transfected into RAW1 cells and left for four days in absence of the normal differentiation factor RANKL. CNA* is activated calcineurin A which elicits a robust differentiation response.
The inventors assessed the ability of some CNA-specific peptide aptamers to promote osteoclast differentiation via the activation of CNA. […] The differentiation state was then observed 4 days post-transfection.
Raw1 cells were transfected with the following plasmids: pCI-HA-Trx (negative control), pCI-HA CNA* (positive control for differentiation activation), pCI-HA R5G42, pCI-HA R5G42-C2, pCI-HA R5G42-C7, pCI-HA R5G42-C8 and pCI-HA R5G42-N9. The sequence of CNA* is the same as that of CNA8 (see FIG. 17, SEQ ID 42). The sequences of the R5G42 (SEQ ID 22), C2 (SEQ ID 23), C7 (SEQ ID 27), C8 (SEQ ID 28) and N9 (SEQ ID 33) aptamers is shown on FIG. 8.
One day before the transfection, Raw I cells were plated in 6-well dishes at 50 cell/mm^2. Transfection was performed with FuGene 6 Reagent (Roche) using 2 μg of each plasmid and following supplier recommendations.
8 h after transfection D-MEM was changed with α-MEM. In the control dishes α-MEM+50 ng/ml RANKL was added. After 2 days, medium was changed with a fresh medium. The differentiation state was then observed 4 days post-transfection.

[8] = 4 days post-transfection, absence of RANKL

Sequence of CNA gamma C-terminal fragment (P48454 386-512 limits assumed): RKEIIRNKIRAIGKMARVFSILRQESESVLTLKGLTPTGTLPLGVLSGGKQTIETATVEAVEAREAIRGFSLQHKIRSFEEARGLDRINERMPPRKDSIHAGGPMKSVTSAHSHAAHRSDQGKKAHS

| Molecule | inhibition of cell proliferation (colony formation) [1] | inhibition of cell proliferation (colony formation) [2] | yeast two-hybrid interaction phenotype with CNA [3] | yeast two-hybrid interaction [4] | yeast two-hybrid interaction [5] | recognition of NS5A-TP2 [6] | osteoclast differentiation [7, 8] | osteoclast differentiation ([7]; control conditions, 50 ng/ml RANKL) |
| --- | --- | --- | --- | --- | --- | --- | --- | --- |
| R7G11: peptide aptamer: variable region LHLAGRGWEN in human thioredoxin (SEQ ID 30) (Aptamer variable sequence of R7G11) | did not inhibit cell proliferation | did not inhibit cell proliferation | – | – | – | – | – | – |
| R7G44: peptide aptamer: variable region HQSTIGVAEF in human thioredoxin (SEQ ID 31); control without antiproliferative effect | did not exert any antiproliferative effect | did not exert any antiproliferative effect | did not show an interaction phenotype | – | – | – | – | – |
| B1 | – | – | – | shown to interact | shown to interact | only aptamers which recognized NS5A-TP2 were R5G42 and N9 | no osteoclasts fully differentiated were detectable | – |
| B2 | – | – | – | shown to interact | shown to interact | only aptamers which recognized NS5A-TP2 were R5G42 and N9 | Some cells with the osteoclast phenotype can be observed | – |
| B3 | – | – | – | shown to interact | shown to interact | only aptamers which recognized NS5A-TP2 were R5G42 and N9 | no osteoclasts fully differentiated were detectable | – |
| B4 | – | – | – | – | – | – | – | differentiated into osteoclasts |

Reference: patent publication US8440804B2, “Polypeptides having modulatory effects on cells” (Ecole Normale Superieure de Lyon, priority 2006, dated 2013)
